Test results reported in article PMC5641120, “Small-molecule inhibitors of PD-1/PD-L1 immune checkpoint alleviate the PD-L1-induced exhaustion of T-cells” (Oncotarget, 2017).

Tested on: PD-1/sPD-L1
Test: PD-1/sPD-L1 effector assay (anti-CD3 activated ECs, luciferase)
Assay type: cell-based, human
Details: anti-CD3 with sPD-L1 (wt or mutein), 24 h, luciferase reporter
Method: To evaluate the potential of BMS compounds in abrogating the inhibitory effect of sPD-L1 on the activation of T cells, sPD-L1 was pre-incubated with tested compounds and presented to ECs together with the anti-CD3-activating antibody.
For the evaluation of the BMS impact on T cell inhibition by soluble PD-L1, the ECs were stimulated with the anti-CD3 antibody in the presence of the recombinant human sPD-L1. For this, the 96-well white flat bottom plates were coated overnight at 4°C with 5 μg/ml of the anti-CD3 antibody or the isotype control solution in PBS. […] Then, 15 μl of the solution was added to each well of the antibody-coated plate. ECs were centrifuged and diluted to 50 000 per ml, and 60 μl of the cell solution was added to each well. The final concentration of sPD-L1 was 10 μg/ml (0.6 μM). The final concentrations of the BMS compounds were: 0.12, 0.3, 1.2 and 3 μM, giving the following BMS:sPD-L1 molar ratios: 1:5, 1:2, 2:1 and 5:1. The cells were cultured for 24 h and the luciferase activity assay was performed using the Bio-Glo Luciferase Assay System (Promega) according to the manufacturer's instructions.

B1: sPD-L1: recombinant human soluble PD-L1 (residues 18–134, C-terminal His-tag) (protein)
chain: AFTVTVPKDLYVVEYGSNMTIECKFPVEKQLDLAALIVYWEMEDKNIIQFVHGEEDLKVQHSSYRQRARLLKDQLSLGNAALQITDVKLQDAGVYRCMISYGGADYKRITVKVNAPY
modifications: NTA-Atto 647 N fluorescent dye on the His-tag (flow cytometry only); uniform 15N labelling (NMR titration with compounds only); left off: His-tag, C-terminal, kept
effect of soluble PD-L1 protein on anti-CD3 mediated activation of ECs: decreased reporter expression to about half
